Source: the supplement of paper PMC10567573

B1: PKD2L1 (parent)
chain: TLARCAKDILGFAVMFFIVFFAYA

Variants of: B1
Assay: protein stability index of a GFP-peptide fusion (GPS, HEK-293T) (PSI 1-6); higher = more stable
Conditions: c terminus: a fixed tail appended
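Further: lentivirally expressed fusions sorted by FACS into six bins by GFP to DsRed ratio, PSI derived from sequencing read proportions per bin multiplied by bin number.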

| Variant | protein stability index |
| --- | --- |
| TLARCAKDILGFAVLFFIVFFAYA [M15L] | 1.25 |
| TLARCAKDILGFAVPFFIVFFAYA [M15P] | 2.62 |
| TLARCAKDILGFAVFFFIVFFAYA [M15F] | 2.54 |
| TLARCAKDILGFAVSFFIVFFAYA [M15S] | 1.33 |
| TLARCAKDILGFAVKFFIVFFAYA [M15K] | 2.58 |
| TLARCAKDILGFAVQFFIVFFAYA [M15Q] | 3.41 |
| TLARCAKDILGFAVDFFIVFFAYA [M15D] | 2.89 |
| TLARCAKDILGFAVMWFIVFFAYA [F16W] | 3.32 |
| TLARCAKDILGFAVMKFIVFFAYA [F16K] | 4.35 |
| TLARCAKDILGFAVMYFIVFFAYA [F16Y] | 1.88 |
| TLARCAKDILGFAVMSFIVFFAYA [F16S] | 1.82 |
| TLARCAKDILGFAVMRFIVFFAYA [F16R] | 3.37 |
| TLARCAKDILGFAVMTFIVFFAYA [F16T] | 2.41 |
| TLARCAKDILGFAVMVFIVFFAYA [F16V] | 2.07 |
| TLARCAKDILGFAVMCFIVFFAYA [F16C] | 1.79 |
| TLARCAKDILGFAVMIFIVFFAYA [F16I] | 1.57 |
| TLARCAKDILGFSVMFFIVFFAYA [A13S] | 1.75 |
| TLARCAKDILGFFVMFFIVFFAYA [A13F] | 2.92 |
| TLARCAKDILGFRVMFFIVFFAYA [A13R] | 3.17 |
| TLARCAKDILGFNVMFFIVFFAYA [A13N] | 2.11 |
| TLARCAKDILGFEVMFFIVFFAYA [A13E] | 2.82 |
| TLARCAKDILGFIVMFFIVFFAYA [A13I] | 1.52 |
| TLARCAKDILGFYVMFFIVFFAYA [A13Y] | 2.65 |
| TLARCAKDILGYAVMFFIVFFAYA [F12Y] | 1.89 |

| Variant | protein stability index |
| --- | --- |
| TLARCAKDILGNAVMFFIVFFAYA [F12N] | 2.55 |
| TLARCAKDILGIAVMFFIVFFAYA [F12I] | 1.49 |
| TLARCAKDILGCAVMFFIVFFAYA [F12C] | 1.87 |
| TLARCAKDILGDAVMFFIVFFAYA [F12D] | 2.24 |
| TLARCAKDILGVAVMFFIVFFAYA [F12V] | 2.42 |
| TLARCAKDILGRAVMFFIVFFAYA [F12R] | 2.02 |
| TLARCAKDILGQAVMFFIVFFAYA [F12Q] | 2.1 |
| TLARGAKDILGFAVMFFIVFFAYA [C5G] | 2.59 |
| TLARRAKDILGFAVMFFIVFFAYA [C5R] | 2.01 |
| TLARKAKDILGFAVMFFIVFFAYA [C5K] | 2.48 |
| TLARTAKDILGFAVMFFIVFFAYA [C5T] | 4.06 |
| TLARLAKDILGFAVMFFIVFFAYA [C5L] | 2.78 |
| TLAREAKDILGFAVMFFIVFFAYA [C5E] | 2.09 |
| TLARYAKDILGFAVMFFIVFFAYA [C5Y] | 2.22 |
| TLARSAKDILGFAVMFFIVFFAYA [C5S] | 2.27 |
| TLARIAKDILGFAVMFFIVFFAYA [C5I] | 3 |
| TQARCAKDILGFAVMFFIVFFAYA [L2Q] | 3.4 |
| TPARCAKDILGFAVMFFIVFFAYA [L2P] | 3.29 |
| TVARCAKDILGFAVMFFIVFFAYA [L2V] | 1.24 |
| TDARCAKDILGFAVMFFIVFFAYA [L2D] | 3.71 |
| TMARCAKDILGFAVMFFIVFFAYA [L2M] | 3.8 |
| TNARCAKDILGFAVMFFIVFFAYA [L2N] | 2.5 |
| TAARCAKDILGFAVMFFIVFFAYA [L2A] | 3.81 |
| VLARCAKDILGFAVMFFIVFFAYA [T1V] | 2.81 |

| Variant | protein stability index |
| --- | --- |
| HLARCAKDILGFAVMFFIVFFAYA [T1H] | 2.29 |
| SLARCAKDILGFAVMFFIVFFAYA [T1S] | 2.19 |
| DLARCAKDILGFAVMFFIVFFAYA [T1D] | 2.96 |
| WLARCAKDILGFAVMFFIVFFAYA [T1W] | 1.62 |
| PLARCAKDILGFAVMFFIVFFAYA [T1P] | 2.03 |
| ALARCAKDILGFAVMFFIVFFAYA [T1A] | 2.36 |
| CLARCAKDILGFAVMFFIVFFAYA [T1C] | 2.98 |
| TLARCAKDILGFAVMFHIVFFAYA [F17H] | 3.23 |
| TLARCAKDILGFAVMFIIVFFAYA [F17I] | 2.44 |
| TLARCAKDILGFAVMFSIVFFAYA [F17S] | 2.03 |
| TLARCAKDILGFAVMFGIVFFAYA [F17G] | 2.44 |
| TLARCAKDILGFAVMFDIVFFAYA [F17D] | 3.23 |
| TLARCAKDILGFAVMFCIVFFAYA [F17C] | 2.07 |
| TLARCAKDILGFAVMFQIVFFAYA [F17Q] | 1.98 |
| TLARCAKDILGFAVMFWIVFFAYA [F17W] | 1.91 |
| TLARCAKDILGFAVMFYIVFFAYA [F17Y] | 2.37 |
| TLARCAKDILGFAVMFFIFFFAYA [V19F] | 2.13 |
| TLARCAKDILGFAVMFFIMFFAYA [V19M] | 2.58 |
| TLARCAKDILGFAVMFFINFFAYA [V19N] | 2.39 |
| TLARCAKDILGFAVMFFIKFFAYA [V19K] | 2.34 |
| TLARCAKDILGFAVMFFIYFFAYA [V19Y] | 2.5 |
| TLARCAKDILGFAVMFFISFFAYA [V19S] | 2.36 |
| TLARCAKDILGFAVMFFICFFAYA [V19C] | 2.32 |
| TLARCAKDILGFAVMFFIAFFAYA [V19A] | 2.61 |

| Variant | protein stability index |
| --- | --- |
| TLARCAKDILGFAVMFFIIFFAYA [V19I] | 2.9 |
| TLARCAKDILGFAVMFFIHFFAYA [V19H] | 3.19 |
| TLARCAKDILGFAVMFFIEFFAYA [V19E] | 2.11 |
| TLARCAKDILGFAVMFFIWFFAYA [V19W] | 3 |
| TLARCAKDILCFAVMFFIVFFAYA [G11C] | 2.06 |
| TLARCAKDILYFAVMFFIVFFAYA [G11Y] | 2.38 |
| TLARCAKDILWFAVMFFIVFFAYA [G11W] | 1.06 |
| TLARCAKDILQFAVMFFIVFFAYA [G11Q] | 2.35 |
| TLARCAKDILFFAVMFFIVFFAYA [G11F] | 1.22 |
| TLARCAKDILKFAVMFFIVFFAYA [G11K] | 3.33 |
| TLARCAKDILNFAVMFFIVFFAYA [G11N] | 2.4 |
| TLARCAKDILGFAVMFFIVFFAAA [Y23A] | 1.7 |
| TLARCAKDILGFAVMFFIVFFAEA [Y23E] | 2.56 |
| TLARCAKDILGFAVMFFIVFFAVA [Y23V] | 2.37 |
| TLARCAKDILGFAVMFFIVFFAWA [Y23W] | 2.72 |
| TLARCAKDILGFAVMFFIVFFATA [Y23T] | 2.98 |
| TLARCAKDILGFAVMFFIVFFAFA [Y23F] | 1.57 |
| TLARCAKDILGFAVMFFIVFFAHA [Y23H] | 2.27 |
| TLARCAKDILGFAVMFFIVFFAKA [Y23K] | 2.31 |
| TLARCAKFILGFAVMFFIVFFAYA [D8F] | 2.33 |
| TLARCAKQILGFAVMFFIVFFAYA [D8Q] | 1.51 |
| TLARCAKIILGFAVMFFIVFFAYA [D8I] | 2.56 |
